Measurements reported in patent publication US20260193348A1.
Where a chain is given by its changes, count along the chain named.

B1: Bis-108-H3L4 (bispecific antibody, not shown: a dimerising Fc or GST)
heavy: EVQLVQSGAEVKKPGASVKVSCKASGYTFTSYVIHWVRQAPGQGLEWMGYFNPYNDGTKYNEEFKGRVTLTSDKSTSTAYMELRSLRSDDTAVYYCARGGVRRYFDVWGQGTTVTVSS
heavy (part 1 of 2): B1 heavy
heavy (part 2 of 2): GGGGSGGGGSEVQLVESGGGLVQPGGSLRLSCAASGFTFNTYAMNWVRQAPGKGLEWVARIRSKYNNYATYYAASVKGRFTISRDDSKNSLYLQMNSLKTEDTAVYYCARHGNFGNSYVSWFAYWGQGTLVTVSSGGGGSGGGGSGGGGSGGGGSQTVVTQEPSLTVSPGGTVTLTCRSSTGAVTTSNYANWVQQKPGQAPRGLIGGTNKRAPGTPARFSGSLLGGKAALTLSGVQPEDEAEYYCALWYSNLWVFGGGTKLTVLGGGGSGGGGS
light: DIQMTQSPSSLSASVGDRVTITCRASQDIGSNLNWLQQKPGKAIKRLIYATFGLDSGVPSRFSGSRSGTDFTLTISSLQPEDFATYYCQQYASFPYTFGGGTKVEIK
B2: ATG-Bis-108 (bispecific antibody, not shown: a dimerising Fc or GST)
heavy: EVQLQQSGPELVKPGASVKMSCKASGYTFTSYVIHWVKQKTGQGLEWIGYFNPYNDGTKYNEEFKGKATLTSDKSSNTAYMELNSLTSDDSAVYFCARGGVRRYFDVWGAGTTVTVSS
heavy (part 1 of 2): B2 heavy
heavy (part 2 of 2): B1 heavy (part 2 of 2)
light: DIQMTQSPSSLSASLGERVSLTCRASQDIGSNLNWLQQEPDGTIKRLIYATFGLDSGVPKRFSGSRSGSDYSLTISSLESEDFVDYYCQQYASFPYTFGGGTKLEIK
B3: Bis-108-H2L4 (bispecific antibody, not shown: a dimerising Fc or GST)
heavy: B1 heavy with M48I, V68A, L70M, S72T, K74T
heavy (part 1 of 2): B1 heavy with M48I, V68A, L70M, S72T, K74T
heavy (part 2 of 2): B1 heavy (part 2 of 2)
light: B1 light
B4: Bis-108-H5L3 (bispecific antibody, not shown: a dimerising Fc or GST)
heavy: B1 heavy with R38K, M48I, R67K, V68A, S72T
heavy (part 1 of 2): B1 heavy with R38K, M48I, R67K, V68A, S72T
heavy (part 2 of 2): B1 heavy (part 2 of 2)
light: B1 light with R66G, F71Y
B5: Bis-108-H1L4 (bispecific antibody, not shown: a dimerising Fc or GST)
heavy: B1 heavy with L70M, S72T, K74T
heavy (part 1 of 2): B1 heavy with L70M, S72T, K74T
heavy (part 2 of 2): B1 heavy (part 2 of 2)
light: B1 light

Target: GPRC5D (G-protein coupled receptor family C group 5 member D), human, on multiple myeloma cell lines (human) (UniProt Q9NZD1)
Sequence (Q9NZD1 whole entry): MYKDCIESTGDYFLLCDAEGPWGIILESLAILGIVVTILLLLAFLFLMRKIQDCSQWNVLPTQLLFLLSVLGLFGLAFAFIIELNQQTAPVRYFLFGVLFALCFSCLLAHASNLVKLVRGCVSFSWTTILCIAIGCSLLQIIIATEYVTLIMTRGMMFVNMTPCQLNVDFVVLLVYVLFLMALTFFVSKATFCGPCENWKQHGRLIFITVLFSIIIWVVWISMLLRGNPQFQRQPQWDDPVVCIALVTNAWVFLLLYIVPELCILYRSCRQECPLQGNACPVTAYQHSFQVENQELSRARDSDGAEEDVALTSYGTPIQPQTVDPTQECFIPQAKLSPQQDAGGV
Assay: cell-based or functional assay

Row | Binder | IC50 (nM), T-Cell Dependent Cytotoxicity, MM.1S [nM] | Top (%), T-Cell Dependent Cytotoxicity, MM.1S [%]
1 | B1 | 0.0496 | 72.4
2 | B2 | 0.0871 | 77.2
3 | B3 | 0.0934 | 74
4 | B4 | 0.0897 | 74.8
5 | B5 | 0.0597 | 75.5
